{"source": "paper doi:10.1101/2024.03.08.584095", "about": "“LPOR and the membranes – evolutionary pathway towards prolamellar body formation” (bioRxiv, 2024)", "target": "the molecule itself", "assay": "negative-stain electron microscopy; purified SynPOR with PG lipids and either Chlide + NADPH or Pchlide + NADP+; search for large oligomers; 37 mM sodium phosphate pH 7.1, 225 mM NaCl, 150 mM imidazole, 5 mM beta-mercaptoethanol, 25% glycerol"}
{"protein": "light-dependent protochlorophyllide oxidoreductase from Synechocystis (SynPOR) (enzyme, UniProt Q59987 1-322, looked up, light-dependent protochlorophyllide oxidoreductase (SynPOR), Synechocystis, Uniprot Q59987; The reaction buffer holds 150 mM imidazole, so a His tag is likely (surmise); In the assay it stood with PG liposomes, pigment (Pchlide or Chlide) and NADP+ or NADPH; also called cyanobacterial LPOR; LPOR) MEQPMKPTVIITGASSGVGLYGAKALIDKGWHVIMACRNLDKTQKVADELGFPKDSYTIIKLDLGYLDSVRRFVAQFRELGRPLKALVCNAAVYFPLLDEPLWSADDYELSVATNHLGHFLLCNLLLEDLKACPDADKRLIILGTVTANSKELGGKIPIPAPPDLGNFEGFEAGFKKPIAMINNKKFKSGKAYKDSKLCNMLTTRELHRRFHQETGIVFNSLYPGCVADTPLFRNHYSLFRTIFPWFQKNVTKGYVSQELAGERVAMVVADDKFKDSGVHWSWGNRQQAGREAFVQELSEQGSDAQKAQRMWDLSEKLVGLV", "values": [{"measurement": "binding result", "result": "binds"}]}
